Biological target: CyOFP1
Experiment: SEC; FPLC on Superdex 75 10/300 GL; elution in 20 mM Tris-HCl (pH 7.80), 200 mM NaCl; oligomeric state from the elution volume against molecular weight standards

stoichiometry N: 2
Substance: CyOFP1
